Test results published in IntAct's records for PubMed 25312756.

B1: Ras-related protein Rab-27A (Homo sapiens), P51159 (parent)
chain: MSDGDYDYLIKFLALGDSGVGKTSVLYQYTDGKFNSKFITTVGIDFREKRVVYRASGPDGATGRGQRIHLQLWDTAGQERFRSLTTAFFRDAMGFLLLFDLTNEQSFLNVRNWISQLQMHAYCENPDIVLCGNKSDLEDQRVVKEEEAIALAEKYGIPYFETSAANGTNISQAIEMLLDLIMKRMERCVDKSWIPEGVVRSNGHASTDQLSEEKEKGACGC
partner: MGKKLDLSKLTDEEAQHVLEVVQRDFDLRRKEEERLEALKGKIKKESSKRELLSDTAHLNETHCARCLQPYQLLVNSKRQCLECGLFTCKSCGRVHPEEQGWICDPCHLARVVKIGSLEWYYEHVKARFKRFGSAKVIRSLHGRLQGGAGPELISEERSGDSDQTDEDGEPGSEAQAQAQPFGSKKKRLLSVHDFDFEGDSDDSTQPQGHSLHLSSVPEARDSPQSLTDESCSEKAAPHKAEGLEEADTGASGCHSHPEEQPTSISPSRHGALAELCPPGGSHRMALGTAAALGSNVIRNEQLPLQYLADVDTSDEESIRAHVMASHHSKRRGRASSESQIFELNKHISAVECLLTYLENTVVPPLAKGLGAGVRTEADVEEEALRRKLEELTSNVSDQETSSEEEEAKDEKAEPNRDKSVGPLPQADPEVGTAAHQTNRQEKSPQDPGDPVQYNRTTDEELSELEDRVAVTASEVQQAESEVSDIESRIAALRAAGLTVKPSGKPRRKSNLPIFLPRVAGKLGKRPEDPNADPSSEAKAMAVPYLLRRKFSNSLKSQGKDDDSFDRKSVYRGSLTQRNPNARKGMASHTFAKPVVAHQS
B2: Ras-related protein Rab-27A (Homo sapiens), P51159 (parent)
chain: B1 chain
partner: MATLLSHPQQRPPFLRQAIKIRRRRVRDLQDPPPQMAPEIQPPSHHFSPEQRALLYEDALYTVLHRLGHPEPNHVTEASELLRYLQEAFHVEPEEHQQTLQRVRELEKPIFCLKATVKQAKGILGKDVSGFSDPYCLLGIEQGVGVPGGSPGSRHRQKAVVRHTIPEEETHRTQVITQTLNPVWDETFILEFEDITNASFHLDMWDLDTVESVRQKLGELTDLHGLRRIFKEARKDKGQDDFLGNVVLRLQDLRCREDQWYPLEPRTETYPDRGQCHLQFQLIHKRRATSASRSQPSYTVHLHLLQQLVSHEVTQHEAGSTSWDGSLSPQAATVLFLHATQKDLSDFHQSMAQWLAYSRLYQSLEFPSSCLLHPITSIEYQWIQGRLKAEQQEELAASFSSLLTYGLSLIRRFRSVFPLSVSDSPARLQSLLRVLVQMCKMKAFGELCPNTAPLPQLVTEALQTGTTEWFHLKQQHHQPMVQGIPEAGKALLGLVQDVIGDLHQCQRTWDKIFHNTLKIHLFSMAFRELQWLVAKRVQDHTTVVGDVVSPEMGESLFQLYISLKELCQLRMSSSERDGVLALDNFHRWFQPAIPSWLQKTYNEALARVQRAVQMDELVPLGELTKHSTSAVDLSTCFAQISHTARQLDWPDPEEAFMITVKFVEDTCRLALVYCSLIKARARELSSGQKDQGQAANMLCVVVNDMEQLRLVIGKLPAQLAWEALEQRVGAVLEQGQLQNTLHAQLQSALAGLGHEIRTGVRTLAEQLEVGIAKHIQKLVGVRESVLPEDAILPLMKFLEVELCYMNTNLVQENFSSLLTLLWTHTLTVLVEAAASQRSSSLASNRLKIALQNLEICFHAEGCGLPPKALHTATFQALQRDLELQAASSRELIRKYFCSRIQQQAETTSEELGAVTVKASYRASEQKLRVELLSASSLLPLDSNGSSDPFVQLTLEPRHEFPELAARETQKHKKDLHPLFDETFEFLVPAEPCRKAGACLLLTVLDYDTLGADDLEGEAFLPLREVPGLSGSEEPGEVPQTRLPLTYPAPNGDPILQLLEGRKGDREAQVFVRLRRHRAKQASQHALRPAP

Variants of: B1
Details: with melph_human MLPH

effect of a mutation on the interaction | Variant
decreasing interaction strength | S163R
with no effect | A76V
with no effect | Y159C

Variants of: B2
Details: with un13d_human UNC13D

effect of a mutation on the interaction | Variant
decreasing interaction strength | S163R
decreasing interaction strength | A76V
disrupting interaction strength | Y159C
